The test system of data set [1] is HeLa Kyoto. Kind of data set: solubility change mitosis vs G1/S (difference of NP-40 vs SDS log2 ratios) (log2 ratio difference); higher = more soluble in mitosis.
For data set [2], the system named is HeLa Kyoto. Kind of data set: thermal stability score vs G1/S (z-score of summed log2 fold changes over temperatures); higher = more thermally stable than in G1/S.
In data set [3] the test system is HeLa Kyoto. Description: solubility in G1/S (NP-40 vs SDS abundance) (log2 ratio); higher = more soluble. Particulars: cell cycle stage: G1/S.
The subject of data set [4] is HeLa Kyoto. Kind of data set: melting temperature (median over replicates), in situ; higher = more thermally stable.
The mark [5] stands for this setting: cell cycle stage: early G1 (4.5 h after nocodazole release).
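Wherever melting temperature (median over replicates), in situ is given: HeLa Kyoto cells synchronized by double thymidine or nocodazole block, proteins quantified by TMT10plex mass spectrometry, three independent biological replicates.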
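Wherever solubility change mitosis vs G1/S (difference of NP-40 vs SDS log2 ratios) is given: synchronized HeLa Kyoto cells (double thymidine block for G1/S, nocodazole release for mitosis), protein amounts in NP-40 versus SDS lysates quantified by mass spectrometry, three biological replicates.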
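Wherever solubility in G1/S (NP-40 vs SDS abundance) is given: HeLa Kyoto cells arrested at G1/S by double thymidine block, proteins quantified by TMT10plex mass spectrometry in mild NP-40 versus SDS extracts, three biological replicates.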
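Wherever thermal stability score vs G1/S (z-score of summed log2 fold changes over temperatures) is given: synchronized HeLa Kyoto cells, proteins quantified by TMT10plex mass spectrometry, three biological replicates, mitosis taken 0.5 h after nocodazole release, G1/S directly after double thymidine block.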

In the case of “MAPKFPDSVEELRAAGNESFRNGQYAEASALYGRALRVLQAQGSSDPEEESVLYSNRAACHLKDGNCRDCIKDCTSALALVPFSIKPLLRRASAYEALEKYPMAYVDYKTVLQIDDNVTSAVEGINRMTRALMDSLGPEWRLKLPSIPLVPVSAQKRWNSLPSENHKEMAKSKSKETTATKNRVPSAGDVEKARVLKEEGNELVKKGNHKKAIEKYSESLLCSNLESATYSNRALCYLVLKQYTEAVKDCTEALKLDGKNVKAFYRRAQAHKALKDYKSSFADISNLLQIEPRNGPAQKLRQEVKQNLH [TOMM34]”, the “solubility change mitosis (log2)” value in the data set on HeLa Kyoto [1] was 0.108. Further, the thermal stability score in the data set on HeLa Kyoto [2] (setting [5]) turned out to be 0.535; in the data set with HeLa Kyoto [2] (cell cycle stage: mitosis) it was 1.04. Also, in the data set with HeLa Kyoto [3], the “solubility in G1/S (log2)” value was 0.584. Besides, the melting temperature with HeLa Kyoto [4] (cell cycle stage: G1/S) stood at 47.4 °C; in the data set on HeLa Kyoto [4] (cell cycle stage: mitosis), 48.8 °C.

On to “MSAPDEGRRDPPKPKGKTLGSFFGSLPGFSSARNLVANAHSSARARPAADPTGAPAAEAAQPQAQVAAHPEQTAPWTEKELQPSEKMVSGAKDLVCSKMSRAKDAVSSGVASVVDVAKGVVQGGLDTTRSALTGTKEVVSSGVTGAMDMAKGAVQGGLDTSKAVLTGTKDTVSTGLTGAVNVAKGTVQAGVDTTKTVLTGTKDTVTTGVMGAVNLAKGTVQTGVETSKAVLTGTKDAVSTGLTGAVNVARGSIQTGVDTSKTVLTGTKDTVCSGVTGAMNVAKGTIQTGVDTSKTVLTGTKDTVCSGVTGAMNVAKGTIQTGVDTSKTVLTGTKDTVCSGVTGAMNVAKGTIQTGVDTTKTVLTGTKNTVCSGVTGAVNLAKEAIQGGLDTTKSMVMGTKDTMSTGLTGAANVAKGAMQTGLNTTQNIATGTKDTVCSGVTGAMNLARGTIQTGVDTTKIVLTGTKDTVCSGVTGAANVAKGAVQGGLDTTKSVLTGTKDAVSTGLTGAVNVAKGTVQTGVDTTKTVLTGTKDTVCSGVTSAVNVAKGAVQGGLDTTKSVVIGTKDTMSTGLTGAANVAKGAVQTGVDTAKTVLTGTKDTVTTGLVGAVNVAKGTVQTGMDTTKTVLTGTKDTIYSGVTSAVNVAKGAVQTGLKTTQNIATGTKNTFGSGVTSAVNVAKGAAQTGVDTAKTVLTGTKDTVTTGLMGAVNVAKGTVQTSVDTTKTVLTGTKDTVCSGVTGAANVAKGAIQGGLDTTKSVLTGTKDAVSTGLTGAVKLAKGTVQTGMDTTKTVLTGTKDAVCSGVTGAANVAKGAVQMGVDTAKTVLTGTKDTVCSGVTGAANVAKGAVQTGLKTTQNIATGTKNTLGSGVTGAAKVAKGAVQGGLDTTKSVLTGTKDAVSTGLTGAVNLAKGTVQTGVDTSKTVLTGTKDTVCSGVTGAVNVAKGTVQTGVDTAKTVLSGAKDAVTTGVTGAVNVAKGTVQTGVDASKAVLMGTKDTVFSGVTGAMSMAKGAVQGGLDTTKTVLTGTKDAVSAGLMGSGNVATGATHTGLSTFQNWLPSTPATSWGGLTSSRTTDNGGEQTALSPQEAPFSGISTPPDVLSVGPEPAWEAAATTKGLATDVATFTQGAAPGREDTGLLATTHGPEEAPRLAMLQNELEGLGDIFHPMNAEEQAQLAASQPGPKVLSAEQGSYFVRLGDLGPSFRQRAFEHAVSHLQHGQFQARDTLAQLQDCFRLIEKAQQAPEGQPRLDQGSGASAEDAAVQEERDAGVLSRVCGLLRQLHTAYSGLVSSLQGLPAELQQPVGRARHSLCELYGIVASAGSVEELPAERLVQSREGVHQAWQGLEQLLEGLQHNPPLSWLVGPFALPAGGQ [PLIN4]”, for which the “solubility change mitosis (log2)” value with HeLa Kyoto [1] was -0.0221. Besides, the thermal stability score in the data set on HeLa Kyoto [2] (setting [5]) worked out at 1.29; in the data set on HeLa Kyoto [2] (cell cycle stage: mitosis), 2.31. Also, the “solubility in G1/S (log2)” value with HeLa Kyoto [3] was found to be 0.21. In addition, the melting temperature was found to be 52.4 °C with HeLa Kyoto [4] (cell cycle stage: G1/S) and 52.3 °C in the data set with HeLa Kyoto [4] (cell cycle stage: mitosis).

Consider “MASTTSTKKMMEEATCSICLSLMTNPVSINCGHSYCHLCITDFFKNPSQKQLRQETFCCPQCRAPFHMDSLRPNKQLGSLIEALKETDQEMSCEEHGEQFHLFCEDEGQLICWRCERAPQHKGHTTALVEDVCQGYKEKLQKAVTKLKQLEDRCTEQKLSTAMRITKWKEKVQIQRQKIRSDFKNLQCFLHEEEKSYLWRLEKEEQQTLSRLRDYEAGLGLKSNELKSHILELEEKCQGSAQKLLQNVNDTLSRSWAVKLETSEAVSLELHTMCNVSKLYFDVKKMLRSHQVSVTLDPDTAHHELILSEDRRQVTRGYTQENQDTSSRRFTAFPCVLGCEGFTSGRRYFEVDVGEGTGWDLGVCMENVQRGTGMKQEPQSGFWTLRLCKKKGYVALTSPPTSLHLHEQPLLVGIFLDYEAGVVSFYNGNTGCHIFTFPKASFSDTLRPYFQVYQYSPLFLPPPGD [TRIM38]”, for which the “solubility change mitosis (log2)” value in the data set with HeLa Kyoto [1] turned out to be 0.155. Further, the thermal stability score with HeLa Kyoto [2] (setting [5]) is -0.0637; with HeLa Kyoto [2] (cell cycle stage: mitosis), -0.487. Also, in the data set with HeLa Kyoto [3], the “solubility in G1/S (log2)” value is -0.661. In the data set on HeLa Kyoto [4] (cell cycle stage: mitosis), this sequence had a melting temperature of 48.8 °C.

On to “MPAPTQLFFPLIRNCELSRIYGTACYCHHKHLCCSSSYIPQSRLRYTPHPAYATFCRPKENWWQYTQGRRYASTPQKFYLTPPQVNSILKANEYSFKVPEFDGKNVSSILGFDSNQLPANAPIEDRRSAATCLQTRGMLLGVFDGHAGCACSQAVSERLFYYIAVSLLPHETLLEIENAVESGRALLPILQWHKHPNDYFSKEASKLYFNSLRTYWQELIDLNTGESTDIDVKEALINAFKRLDNDISLEAQVGDPNSFLNYLVLRVAFSGATACVAHVDGVDLHVANTGDSRAMLGVQEEDGSWSAVTLSNDHNAQNERELERLKLEHPKSEAKSVVKQDRLLGLLMPFRAFGDVKFKWSIDLQKRVIESGPDQLNDNEYTKFIPPNYHTPPYLTAEPEVTYHRLRPQDKFLVLATDGLWETMHRQDVVRIVGEYLTGMHHQQPIAVGGYKVTLGQMHGLLTERRTKMSSVFEDQNAATHLIRHAVGNNEFGTVDHERLSKMLSLPEELARMYRDDITIIVVQFNSHVVGAYQNQE [PDP1]”, for which the “solubility change mitosis (log2)” value in the data set on HeLa Kyoto [1] is -0.0758. The thermal stability score with HeLa Kyoto [2] (setting [5]) turned out to be 0.767; in the data set with HeLa Kyoto [2] (cell cycle stage: mitosis) it was 1.07. Besides, in the data set on HeLa Kyoto [3], the “solubility in G1/S (log2)” value was 0.103. The figures for the melting temperature with HeLa Kyoto [4] (cell cycle stage: G1/S) and in the data set on HeLa Kyoto [4] (cell cycle stage: mitosis) were 52.7 °C and 51.6 °C, respectively.

For the sequence “MFSWVSKDARRKKEPELFQTVAEGLRQLYAQKLLPLEEHYRFHEFHSPALEDADFDNKPMVLLVGQYSTGKTTFIRHLIEQDFPGMRIGPEPTTDSFIAVMHGPTEGVVPGNALVVDPRRPFRKLNAFGNAFLNRFMCAQLPNPVLDSISIIDTPGILSGEKQRISRGYDFAAVLEWFAERVDRIILLFDAHKLDISDEFSEVIKALKNHEDKIRVVLNKADQIETQQLMRVYGALMWSLGKIINTPEVVRVYIGSFWSHPLLIPDNRKLFEAEEQDLFKDIQSLPRNAALRKLNDLIKRARLAKVHAYIISSLKKEMPNVFGKESKKKELVNNLGEIYQKIEREHQISPGDFPSLRKMQELLQTQDFSKFQALKPKLLDTVDDMLANDIARLMVMVRQEESLMPSQVVKGGAFDGTMNGPFGHGYGEGAGEGIDDVEWVVGKDKPTYDEIFYTLSPVNGKITGANAKKEMVKSKLPNTVLGKIWKLADVDKDGLLDDEEFALANHLIKVKLEGHELPADLPPHLVPPSKRRHE [EHD1]”, the “solubility change mitosis (log2)” value in the data set with HeLa Kyoto [1] is -0.0648. In addition, the thermal stability score in the data set with HeLa Kyoto [2] (setting [5]) stood at 2.25; in the data set with HeLa Kyoto [2] (cell cycle stage: mitosis), 2.22. In addition, the “solubility in G1/S (log2)” value in the data set with HeLa Kyoto [3] was 0.171. The values for the melting temperature in the data set with HeLa Kyoto [4] (cell cycle stage: G1/S) and in the data set with HeLa Kyoto [4] (cell cycle stage: mitosis) were 50.6 °C and 50.5 °C, respectively.

With “MANIAVQRIKREFKEVLKSEETSKNQIKVDLVDENFTELRGEIAGPPDTPYEGGRYQLEIKIPETYPFNPPKVRFITKIWHPNISSVTGAICLDILKDQWAAAMTLRTVLLSLQALLAAAEPDDPQDAVVANQYKQNPEMFKQTARLWAHVYAGAPVSSPEYTKKIENLCAMGFDRNAVIVALSSKSWDVETATELLLSN [UBE2K]”, in the data set with HeLa Kyoto [1], the “solubility change mitosis (log2)” value is -0.0147. Moreover, the figures for the thermal stability score in the data set on HeLa Kyoto [2] (setting [5]) and in the data set with HeLa Kyoto [2] (cell cycle stage: mitosis) were -2.17 and 0.646, respectively. Also, the “solubility in G1/S (log2)” value in the data set on HeLa Kyoto [3] worked out at 0.332. For the same sequence, the melting temperature was 53.2 °C in the data set with HeLa Kyoto [4] (cell cycle stage: G1/S) and 53.9 °C with HeLa Kyoto [4] (cell cycle stage: mitosis).

The values are drawn from the supplement of paper PMC5998384.
